Earlier results as cited in US10744082B2, “Compositions for treatment of xerostomia and for tooth treatment” (3 IN 1 DENTAL PLLC, priority 2013, dated 2020).

System: lean meat
Conditions: usual grade of papain

B1: Papain (protein, UniProt P00784 134-345, looked up)
Papain: IPEYVDWRQKGAVTPVKNQGSCGSCWAFSAVVTIEGIIKIRTGNLNEYSEQELLDCDRRSYGCNGGYPWSALQLVAQYGIHYRNTYPYEGVQRYCRSREKGPYAAKTDGVRQVQPYNEGALLYSIANQPVSVVLEAAGKDFQLYRGGIFVGPCGNKVDHAVAAVGYGPNYILIKNSWGTGWGENGYIRIKRGTGNSYGVCGLYTSSFYPVKN
notes: Protease enzyme; white or grayish-white, slightly hygroscopic powder, designated USP
  potency: weight of lean meat digested: ~35 times its weight
